In the supplement of paper PMC12042874:
± gives the uncertainty stated by the source.

Experiment: amyloid nucleation score (Sup35N fusion, yeast selection) (log enrichment); library NNK3; higher = more nucleation; inactive = no reads after selection
How it was run: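 The nucleation score equals the log enrichment of output over input reads from DiMSum, centred on the mode score of non-aggregating sequences. It was computed only for sequences with 100 or more input reads. The reads came from Illumina sequencing of plasmid inserts from psi-negative yeast expressing Sup35N fused to peptides of 20 random codons, induced with 100 μM copper sulfate for 24 hours and grown 7 days at 30°C without adenine and uracil.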

Question: For MRDMIINMVSGETNGLCVKP, which amyloid nucleation score is on record?
Answer: inactive

Question: With SFNNACVFYMNSWLRWRI as the substance, how does the amyloid nucleation score read?
Answer: 1.96 ± 0.083

Question: With TVYFNYRVWHTMARKQKLSS as the substance, how does the amyloid nucleation score read?
Answer: inactive

Question: For VPSVYKKRWWYHKPWHNRHV, which amyloid nucleation score is on record?
Answer: inactive

Question: With SLEIEK as the substance, how does the amyloid nucleation score read?
Answer: inactive

Question: Which amyloid nucleation score does the source give for IVIYLSHDKNLIQVRSSCEG here?
Answer: 2.59 ± 0.056

Question: With RCYFKYP as the substance, how does the amyloid nucleation score read?
Answer: 1.32 ± 0.13

Question: With LNSDIVVNLNIAWSYCIV as the substance, how does the amyloid nucleation score read?
Answer: 1.39 ± 0.068

Question: Which amyloid nucleation score does the source give for CYRYAIMNAFS here?
Answer: inactive

Question: With WGMTNSETGLVGWSLSKLLG as the substance, how does the amyloid nucleation score read?
Answer: inactive

Question: For PGSLI, which amyloid nucleation score is on record?
Answer: -0.219 ± 0.52

Question: Which amyloid nucleation score does the source give for MPMCT here?
Answer: inactive

Question: With TISSSLKRMWDIVFSLCNNI as the substance, how does the amyloid nucleation score read?
Answer: inactive

Question: With FKGTTMIGRYINRVVMWAWS as the substance, how does the amyloid nucleation score read?
Answer: inactive

Question: With SFNFCLFASLSALCMTRVEF as the substance, how does the amyloid nucleation score read?
Answer: inactive

Question: For CTRCVFSIR, which amyloid nucleation score is on record?
Answer: -0.056 ± 0.57

Question: For GVRNGPKLILFYLRSWHEAY, which amyloid nucleation score is on record?
Answer: inactive

Question: Which amyloid nucleation score does the source give for CFTVVPGSVMF here?
Answer: inactive

Question: Which amyloid nucleation score does the source give for YSTMLLVHYMFLKIE here?
Answer: inactive

Question: With PMKGSSMSTPTANIRQ as the substance, how does the amyloid nucleation score read?
Answer: -0.135 ± 1.1

Question: With LGMSYVYTTGLQKQAASQ as the substance, how does the amyloid nucleation score read?
Answer: inactive

Question: With FGQDSPSVLTC as the substance, how does the amyloid nucleation score read?
Answer: -0.381 ± 0.7

Question: With ITTFVVMCDLVVLVC as the substance, how does the amyloid nucleation score read?
Answer: inactive

Question: With TMHYFQNTAIDRYEMTAP as the substance, how does the amyloid nucleation score read?
Answer: inactive

Question: For EVHLSINEINLYVIEDEGSL, which amyloid nucleation score is on record?
Answer: 0.013 ± 0.32

Question: With SNAKWGNISVGSRDYRTIRS as the substance, how does the amyloid nucleation score read?
Answer: 1.48 ± 0.083

Question: With CIKTCSCLSLPGLRFSPAIS as the substance, how does the amyloid nucleation score read?
Answer: inactive

Question: For LEFVY, which amyloid nucleation score is on record?
Answer: 0.238 ± 0.52

Question: With MLNGVLNSKVPMNRRTSGNL as the substance, how does the amyloid nucleation score read?
Answer: 0.537 ± 0.13

Question: With WIRIIQLNVSERGNRVGSYC as the substance, how does the amyloid nucleation score read?
Answer: 0.37 ± 0.5

Question: For EKANLLIWDFKKDMLRTVGG, which amyloid nucleation score is on record?
Answer: inactive

Question: For YESHLSRRLLIMYIGAFLGR, which amyloid nucleation score is on record?
Answer: inactive

Question: Which amyloid nucleation score does the source give for WRYVFLVC here?
Answer: inactive

Question: Which amyloid nucleation score does the source give for VLRSNHFD here?
Answer: inactive

Question: Which amyloid nucleation score does the source give for VALLTYFWYGPIKGVAS here?
Answer: inactive

Question: With INYYFWTSGK as the substance, how does the amyloid nucleation score read?
Answer: 0.731 ± 0.3

Question: For IVDHNIMI, which amyloid nucleation score is on record?
Answer: 0.718 ± 0.3

Question: Which amyloid nucleation score does the source give for RLNWGFTLA here?
Answer: inactive

Question: Which amyloid nucleation score does the source give for LLRSQASTATGYH here?
Answer: inactive

Question: For YSCGFDLAAWAFTDVIRRRI, which amyloid nucleation score is on record?
Answer: inactive

Question: For LNLGIFV, which amyloid nucleation score is on record?
Answer: inactive

Question: Which amyloid nucleation score does the source give for IILRFDGFTMSSPRNLVIDG here?
Answer: inactive

Question: For SLKLRCLLGTSKVVMVDLFV, which amyloid nucleation score is on record?
Answer: inactive

Question: Which amyloid nucleation score does the source give for VFLLCSLILWRAQLQLVCSL here?
Answer: inactive

Question: Which amyloid nucleation score does the source give for TVSIKSAHATRTQVVPNMSF here?
Answer: inactive

Question: With ELLWGPMGSNWKSLVVYFSH as the substance, how does the amyloid nucleation score read?
Answer: inactive

Question: Which amyloid nucleation score does the source give for VVLIFWWKSQGMSMIVFVIY here?
Answer: inactive

Question: For MWVGKHDVYTRDFM, which amyloid nucleation score is on record?
Answer: inactive

Question: With IRASFEPWVLVRVFYSLCYG as the substance, how does the amyloid nucleation score read?
Answer: inactive

Question: Which amyloid nucleation score does the source give for MGSSFGGVLVSISVSWGCGF here?
Answer: -0.012 ± 0.51

Question: Which amyloid nucleation score does the source give for CRKNRSFGDGDLKFCANLNC here?
Answer: inactive

Question: Which amyloid nucleation score does the source give for GFAYESQAA here?
Answer: inactive

Question: With SLPGSKYKAFH as the substance, how does the amyloid nucleation score read?
Answer: inactive

Question: For SIPLLTQMWTVNGNRRWQTA, which amyloid nucleation score is on record?
Answer: inactive

Question: Which amyloid nucleation score does the source give for KMACTCAESTVIIS here?
Answer: inactive

Question: Which amyloid nucleation score does the source give for FFEFSTSVVYN here?
Answer: inactive

Question: For TIYVLCGRTIRWFVLNPLQE, which amyloid nucleation score is on record?
Answer: inactive

Question: With TSSAHNTRSCLMM as the substance, how does the amyloid nucleation score read?
Answer: inactive

Question: Which amyloid nucleation score does the source give for IISSSL here?
Answer: inactive

Question: With NQVISFWYSIQYCYEYSRNS as the substance, how does the amyloid nucleation score read?
Answer: inactive

Question: With DACSVNEMSYVDTAGIWVWR as the substance, how does the amyloid nucleation score read?
Answer: inactive

Question: For GKDSGDCTRIRLGV, which amyloid nucleation score is on record?
Answer: 1.2 ± 0.14

Question: With HYSAFTRQSVSSKDTDT as the substance, how does the amyloid nucleation score read?
Answer: -0.582 ± 0.76

Question: With WYRMLFIRSKDSMDKMPIFL as the substance, how does the amyloid nucleation score read?
Answer: inactive

Question: For LVYNLNRKRGCKGVPVLRYS, which amyloid nucleation score is on record?
Answer: inactive

Question: Which amyloid nucleation score does the source give for NYLVYSCDVRYSYMVSELAS here?
Answer: inactive

Question: Which amyloid nucleation score does the source give for LINAYQLLFQNHQKEMMFVT here?
Answer: inactive
